Measurements taken from US20250382602.
Changes are numbered by the printed parent chain.

What was measured:
[1] = molecular target: T1, Dda 1993 K177E K177E (Enterobacteria phage T4) (UniProt P32270); settings: nanopore translocation; background mutations not given
T1 sequence: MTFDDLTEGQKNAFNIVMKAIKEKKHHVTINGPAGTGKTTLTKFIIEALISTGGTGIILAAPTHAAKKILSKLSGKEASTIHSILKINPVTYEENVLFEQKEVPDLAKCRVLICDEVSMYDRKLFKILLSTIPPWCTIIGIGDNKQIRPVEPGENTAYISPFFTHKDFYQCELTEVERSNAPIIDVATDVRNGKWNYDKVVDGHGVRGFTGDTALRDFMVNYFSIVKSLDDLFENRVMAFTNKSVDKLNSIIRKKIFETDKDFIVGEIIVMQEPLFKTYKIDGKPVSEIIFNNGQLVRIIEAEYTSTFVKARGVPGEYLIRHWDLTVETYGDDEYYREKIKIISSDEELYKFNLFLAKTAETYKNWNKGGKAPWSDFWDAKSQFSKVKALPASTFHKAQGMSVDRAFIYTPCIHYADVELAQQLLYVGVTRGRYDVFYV

[2] = molecular target: T2, Dda 1993 K177T K177T (Enterobacteria phage T4) (UniProt P32270); settings: nanopore translocation; background mutations not given
T2 sequence: T1 sequence with E177T

[3] = molecular target: T3, Dda 1993 K177N K177N (Enterobacteria phage T4) (UniProt P32270); settings: nanopore translocation; background mutations not given
T3 sequence: T1 sequence with E177N

[4] = molecular target: T4, Dda 1993 K177S K177S (Enterobacteria phage T4) (UniProt P32270); settings: nanopore translocation; background mutations not given
T4 sequence: T1 sequence with E177S

[5] = molecular target: T5, Dda 1993 K177R K177R (Enterobacteria phage T4) (UniProt P32270); settings: nanopore translocation; background mutations not given
T5 sequence: T1 sequence with E177R

[6] = molecular target: T6, Dda 1993 K358A K358A (Enterobacteria phage T4) (UniProt P32270); settings: nanopore translocation, FLO-MIN112; background mutations not given
T6 sequence: T1 sequence with E177K, K358A

Substance: barcoded 3.6 kb DNA analyte ligated to sequencing Y adaptor
- activity (bps speed delta vs control) [1]: 58.7
- activity (bps speed delta vs control) [2]: 22.6
- activity (bps speed delta vs control) [3]: 2.4
- activity (bps speed delta vs control) [4]: -31.1
- activity (bps speed delta vs control) [5]: 21.7
- activity (bps speed delta vs control) [6]: -0.99
